Publication PMC12797002, “Hydrophobic residues in the α‐synuclein NAC domain drive seed‐competent fibril formation and are targeted by peptide inhibitors” (The Febs Journal, 2025)

Columns and labels:
[1] = target: the molecule itself; assay: co-sedimentation; 100 μM NAC peptide incubated 48 h without ThT, centrifuged at 65 000 g for 1 h; UV–Vis spectra (400–600 nm) of soluble and insoluble fractions
[2] = target: the molecule itself; assay: ANS fluorescence aggregation kinetics; 100 μM NAC peptide, 40 μM ANS, 1× PBS at acidic (pH 4.2 in the methods, 4.5 in the legend), neutral (7.2) or basic (8.0) pH, 37 °C, 1000 rpm

Protein | binding result [1] | binding result [2]
VTNVGGAVVTGVTAVA (peptide, UniProt P37840 63-78, looked up, alpha-synuclein, residues 63-78 (NAC residues 3-18); also called αSyn 63–78; source: synthetic peptide (GenScript Biotech, purity ≥ 95%)) [NAC16] | binds | 
GAVVTGVTAVA (peptide, UniProt P37840 68-78, looked up, alpha-synuclein, residues 68-78 (NAC residues 8-18); also called NACore; αSyn 68–78; source: synthetic peptide (GenScript Biotech, purity ≥ 95%)) [NAC11] |  | binds
